{"source": "paper PMC5522039", "about": "“Non-invasive assessment of murine PD-L1 levels in syngeneic tumor models by nuclear imaging with nanobody tracers” (Oncotarget, 2017)", "binders": {"B1": {"name": "Nb C15 (HA-tagged, in periplasmic extract) (VHH)", "VHH": "QVQLQESGGGLVQTGGSLRVSCAVSGSTVSRSTMAWWRQTPGNQRELVALVDSGGKSNYVDSVKGRFTISTDNAKNTMYLQMNSLKPEDTAVYYCRILSVQGIWYWGQGTQVTVSS", "notes": "source: E. coli WK6 (pHEN4), crude periplasmic extract"}, "B2": {"name": "Nb C16 (HA-tagged, in periplasmic extract) (VHH)", "VHH": "B1 VHH with T14A, R19K, R31S, Q101K", "notes": "as for B1"}, "B3": {"name": "Nb G1 (HA-tagged, in periplasmic extract) (VHH)", "VHH": "QVQLQESGGGLVQPGGSLRLSCAASGSISSFNFMGWYRQAPGKQRELVALSTNSGVTNVAGSVKGRFTISRDNAKTTVYLQMNSLKPEDTAVYYCRVGAMGNLYWGQGTQVTVSS", "notes": "as for B1"}, "B4": {"name": "Nb G2 (HA-tagged, in periplasmic extract) (VHH)", "VHH": "B3 VHH with A23V", "notes": "as for B1"}, "B5": {"name": "Nb G3 (HA-tagged, in periplasmic extract) (VHH)", "VHH": "B3 VHH with P14T", "notes": "as for B1"}, "B6": {"name": "Nb G4 (HA-tagged, in periplasmic extract) (VHH)", "VHH": "B3 VHH with P14A", "notes": "as for B1"}, "B7": {"name": "Nb C6 (HA-tagged, in periplasmic extract) (VHH)", "VHH": "QVQLQESGGGLVQAGDSLRLSCAASGSTVSSSMMAWWRQTPGNQRELVALVASGNNTNYVDSVKGRFTVSRDNAKNTMYLQMNSLKPEDTAVYYCRILSVNGIWYWGQGTQVTVSS", "notes": "as for B1"}, "B8": {"name": "Nb C11 (HA-tagged, in periplasmic extract) (VHH)", "VHH": "B7 VHH with A14T, D16G, M33T, N55G", "notes": "as for B1"}, "B9": {"name": "Nb C1 (HA-tagged, in periplasmic extract) (VHH)", "VHH": "B7 VHH with A14T, D16G, S53R", "notes": "as for B1"}, "B10": {"name": "Nb C13 (HA-tagged, in periplasmic extract) (VHH)", "VHH": "B7 VHH with A14T, D16G, M33T, W37Y, E46D, A52G, N55G, T57I, R71I", "notes": "as for B1"}, "B11": {"name": "Nb C10 (HA-tagged, in periplasmic extract) (VHH)", "VHH": "B7 VHH with A14T, D16G, M33T, N55G, V100M", "notes": "as for B1"}, "B12": {"name": "Nb C3 (HA-tagged, in periplasmic extract) (VHH)", "VHH": "B7 VHH with A14T, D16G", "notes": "as for B1"}, "B13": {"name": "Nb C9 (HA-tagged, in periplasmic extract) (VHH)", "VHH": "B7 VHH with D16E, A24G, M33T, N55G, V100M", "notes": "as for B1"}, "B14": {"name": "Nb C12 (HA-tagged, in periplasmic extract) (VHH)", "VHH": "B7 VHH with A14T, D16G, M33T, N55G, P87A", "notes": "as for B1"}, "B15": {"name": "Nb C14 (HA-tagged, in periplasmic extract) (VHH)", "VHH": "B7 VHH with A14T, D16G, S30G, M33T, A52G, S53L, N55G, R71I, K75E, P87F", "notes": "as for B1"}, "B16": {"name": "Nb A1 (HA-tagged, in periplasmic extract) (VHH)", "VHH": "QVQLQESGGGLVQPGGSLRLSCAASGFTLDYYAIGWFRQAPGKEREGVSCISSSDGSTYYADSVKGRFTISRDNAKNTVYLQMSSLKPEDTAVYYCGISGSCLLEDYGMDYWGKGTQVTVSS", "notes": "as for B1"}, "B17": {"name": "Nb B1 (HA-tagged, in periplasmic extract) (VHH)", "VHH": "QVQLQESGGGLVHPGGSLRLSCAASGFSLDNYAIGWFRQAPGKEREGVSCISSGSEGRRYYADFVKGRFTISRDNAKNTAFLQMNSLKPEDTADYYCATVGFCSSQYGMEFVGDYWGQGTQVTVSS", "notes": "as for B1"}, "B18": {"name": "Nb E1 (HA-tagged, in periplasmic extract) (VHH)", "VHH": "QVQLQESGGGLVQAGGSLRLSCATSGSIFSIISMGWYRQAPGKQRELVALVFRGGSTVYADSVKGRFTISGDIAKNTVYLQMDSLKPEDTAVYYCNVKSIGTAQYWGQGTQVTVSS", "notes": "as for B1"}, "B19": {"name": "Nb E5 (HA-tagged, in periplasmic extract) (VHH)", "VHH": "B18 VHH with A14P, N76S, V97A, S99P", "notes": "as for B1"}, "B20": {"name": "Nb E2 (HA-tagged, in periplasmic extract) (VHH)", "VHH": "B18 VHH with V112I", "notes": "as for B1"}, "B21": {"name": "Nb E6 (HA-tagged, in periplasmic extract) (VHH)", "VHH": "B18 VHH with N76S, V97A, S99P", "notes": "as for B1"}, "B22": {"name": "Nb D1 (HA-tagged, in periplasmic extract) (VHH)", "VHH": "QVQLQESGGGLVQAGGSLRLSCAASGITVSINAMAWYRQPPGKQRELVALIIGGSTRYADSVKGRFTISRDNAKNTVYLQMNSLKPEDTAVYACNTRAYWGQGTQVTVSS", "notes": "as for B1"}, "B23": {"name": "Nb C4 (HA-tagged, in periplasmic extract) (VHH)", "VHH": "QVQLQESGGGLVQPGGSLRLSCAASGSTVSSSMMAWWRQTPGNQRELVALVASGNNTNYVDSVKGRFTVSRDNAKNTMYLQMNGLKPEDTAVYYCRLSVNGIWYWGQGTQVTVSS", "notes": "as for B1"}, "B24": {"name": "Nb C7 (HA-tagged, in periplasmic extract) (VHH)", "VHH": "QVQLQESGGGSVQAGESLTLSCTASGSSLSHKSVGWWRQTPGNQRELVALVASGNNTNYVDSVKGRFTVSRDNAKNTMYLQMNSLKPEDTAVYYCRILSVNGIWYWGQGTQVTVSS", "notes": "as for B1"}, "B25": {"name": "Nb L1 (HA-tagged, in periplasmic extract) (VHH)", "VHH": "VQAGGSLRLSCAASGYRYCRYDMSWYRQAPGKEREFVSAIDSYGSPTYADTVLGRFTISRDNAKNTVYLQMNSLKAEDTAMYYCKIDSTGWSSRCGKTYWGQGTQVTVSS", "notes": "as for B1"}, "B26": {"name": "Nb M1 (HA-tagged, in periplasmic extract) (VHH)", "VHH": "VQAGDSLRLACTLFKYPTNNLCLAWFRQAPGKEREGVAALNTDGVGTYYAKSVEGRFTISQDKSKNEGYLQMDNLKPEDTAIYYCAADPTSRCNNYVQGRWWHEIGSRVWDWGQGTQVTVSS", "notes": "as for B1"}, "B27": {"name": "Nb I1 (HA-tagged, in periplasmic extract) (VHH)", "VHH": "QVQLQESGGGLVQAGGSLRLSCAASGRTFRRYDMGWFRQAPGKEREFVAASTWSADDTYYAGSVKGRFTISRDNAKNTVYLQMNSLKPEDTAVYYCAAGETRKYGFRTTEGYYDSWGQGTQVTVSS", "notes": "as for B1"}, "B28": {"name": "Nb G5 (HA-tagged, in periplasmic extract) (VHH)", "VHH": "QVQLQESGGGLVQPGGSLRLSCAASGSFFRTYIVSWYRQAPGKRREAVAVMSNSGNTNYADSVKGRFTISRDNAVNTVYLQMNSLKPEDTAVYYCNLLKVTVPPANYWGQGTQVTVSS", "notes": "as for B1"}, "B29": {"name": "Nb G6 (HA-tagged, in periplasmic extract) (VHH)", "VHH": "B28 VHH with G16E, A23V", "notes": "as for B1"}, "B30": {"name": "Nb G7 (HA-tagged, in periplasmic extract) (VHH)", "VHH": "B28 VHH with P14S", "notes": "as for B1"}, "B31": {"name": "Nb C3 (purified, C-terminal His6 tag) (VHH)", "VHH": "B7 VHH with A14T, D16G", "notes": "source: E. coli (pHEN6), purified; not shown: His6, C-terminal, kept"}, "B32": {"name": "Nb E2 (purified, C-terminal His6 tag) (VHH)", "VHH": "B18 VHH with V112I", "notes": "as for B31"}, "B33": {"name": "Nb E4 (purified, C-terminal His6 tag) (VHH)", "VHH": "B18 VHH with Q13H, A14P, N76S, V97A, S99P", "notes": "as for B31"}, "B34": {"name": "Nb C7 (purified, C-terminal His6 tag) (VHH)", "VHH": "B24 VHH", "notes": "as for B31"}}, "note": "Substitutions are numbered along the chain they refer to."}
{"target": "T1, Human PD-L1 Fc-fusion protein (R&D Systems, 156-B7) (Homo sapiens, UniProt Q9NZQ7)", "T1 construct": "programmed death-ligand 1 (PD-L1, B7-H1, CD274), human; also called huPD-L1; B7-H1; source: bought: R&D Systems (156-B7)", "T1 sequence (Q9NZQ7 19-238)": "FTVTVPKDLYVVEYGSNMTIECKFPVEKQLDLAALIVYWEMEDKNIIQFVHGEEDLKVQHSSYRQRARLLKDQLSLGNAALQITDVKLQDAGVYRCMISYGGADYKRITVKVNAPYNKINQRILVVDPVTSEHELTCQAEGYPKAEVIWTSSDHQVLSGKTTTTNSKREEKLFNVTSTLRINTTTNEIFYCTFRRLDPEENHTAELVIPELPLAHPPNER", "test": "SPR; Biacore T200, 25°C, HBS (0.01 M HEPES pH 7.4, 0.15 M NaCl, 3 mM EDTA, 0.005% Tween 20); mouse or human PD-L1 Fc-fusion protein amine-coupled on a CM5 chip (650-900 RU); Nb in crude periplasmic extract as analyte, its concentration estimated by CFCA; 9 dilutions, 120 s association, 160 s dissociation; 1-to-1 fit; affinity estimations", "conditions": "one partner purified", "units": {"Kd": "nM"}}
{"binder": "B1", "Kd": 335}
{"binder": "B2", "Kd": 520}
{"binder": "B3", "Kd": 50}
{"binder": "B4", "Kd": 158}
{"binder": "B5", "Kd": 907}
{"binder": "B6", "Kd": 74}
{"binder": "B7", "Kd": 94}
{"binder": "B8", "Kd": 246}
{"binder": "B9", "Kd": 143}
{"binder": "B10", "Kd": 162}
{"binder": "B11", "Kd": 141}
{"binder": "B12", "Kd": 32}
{"binder": "B13", "Kd": 44}
{"binder": "B14", "Kd": 181}
{"binder": "B15", "Kd": 71}
{"binder": "B16", "Kd": 23}
{"binder": "B17", "Kd": 6}
{"binder": "B18", "Kd": 12}
{"binder": "B19", "Kd": 54}
{"binder": "B20", "Kd": 94}
{"binder": "B21", "Kd": 217}
{"binder": "B22", "Kd": 291}
{"binder": "B23", "Kd": 342}
{"binder": "B24", "Kd": 27}
{"binder": "B25", "Kd": 34}
{"binder": "B26", "Kd": 17}
{"binder": "B27", "Kd": 322}
{"binder": "B28", "Kd": 16}
{"binder": "B29", "Kd": 21}
{"binder": "B30", "Kd": 129}
{"target": "T2, Mouse PD-L1 Fc-fusion protein (R&D Systems, 1019-B7) (Mus musculus, UniProt Q9EP73)", "T2 construct": "programmed death-ligand 1 (PD-L1, B7-H1, CD274), mouse; also called moPD-L1; B7-H1; source: bought: R&D Systems (1019-B7)", "T2 sequence (Q9EP73 19-239)": "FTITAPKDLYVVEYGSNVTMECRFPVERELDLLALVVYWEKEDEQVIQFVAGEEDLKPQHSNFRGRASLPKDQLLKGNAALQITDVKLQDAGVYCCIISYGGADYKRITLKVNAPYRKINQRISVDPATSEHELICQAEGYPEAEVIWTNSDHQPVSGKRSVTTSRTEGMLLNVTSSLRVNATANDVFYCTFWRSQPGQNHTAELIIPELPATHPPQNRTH", "test": "SPR; Biacore T200, 25°C, HBS (0.01 M HEPES pH 7.4, 0.15 M NaCl, 3 mM EDTA, 0.005% Tween 20); mouse or human PD-L1 Fc-fusion protein amine-coupled on a CM5 chip (650-900 RU); Nb in crude periplasmic extract as analyte, its concentration estimated by CFCA; 9 dilutions, 120 s association, 160 s dissociation; 1-to-1 fit; affinity estimations", "conditions": "one partner purified", "units": {"Kd": "nM"}}
{"binder": "B1", "Kd": 6.5}
{"binder": "B2", "Kd": 15}
{"binder": "B3", "Kd": 4.4}
{"binder": "B4", "Kd": 5.5}
{"binder": "B5", "Kd": 5}
{"binder": "B6", "Kd": 6.2}
{"binder": "B7", "Kd": 0.289}
{"binder": "B8", "Kd": 12}
{"binder": "B9", "Kd": 0.327}
{"binder": "B10", "Kd": 33}
{"binder": "B11", "Kd": 6.7}
{"binder": "B12", "Kd": 0.14}
{"binder": "B13", "Kd": 2.2}
{"binder": "B14", "Kd": 11.4}
{"binder": "B15", "Kd": 1.8}
{"binder": "B17", "Kd": 123}
{"binder": "B18", "Kd": 2.3}
{"binder": "B19", "Kd": 14}
{"binder": "B20", "Kd": 5.6}
{"binder": "B21", "Kd": 6.9}
{"binder": "B22", "Kd": 12}
{"binder": "B23", "Kd": 0.187}
{"binder": "B24", "Kd": 3.1}
{"binder": "B25", "Kd": 15}
{"binder": "B26", "Kd": 13}
{"binder": "B27", "Kd": 67}
{"binder": "B28", "Kd": 3.9}
{"binder": "B29", "Kd": 5}
{"binder": "B30", "Kd": 3.4}
{"target": "T3, His-tagged recombinant human PD-L1 protein (Sino Biological #10084-H08H) (Homo sapiens, UniProt Q9NZQ7)", "T3 construct": "programmed death-ligand 1 (PD-L1, B7-H1, CD274), human; also called huPD-L1; source: bought: Sino Biological (#10084-H08H)", "T3 sequence (Q9NZQ7 19-238)": "as the sequence (Q9NZQ7 19-238) above", "test": "SPR; Biacore T200, 25°C, HBS (0.01 M HEPES pH 7.4, 0.15 M NaCl, 3 mM EDTA, 0.005% Tween 20); His-tagged recombinant human PD-L1 amine-coupled on a CM5 chip (650-900 RU); purified Nb as analyte, 9 dilutions (0.15-1000 nM), 120 s association, 160 s dissociation; 1-to-1 fit; n = 1", "conditions": "both partners purified", "units": {"Kd": "nM"}}
{"binder": "B31", "Kd": 170}
{"binder": "B32", "Kd": 55.1}
{"binder": "B33", "Kd": 46.1}
{"binder": "B34", "Kd": 74.5}
